# Columns and labels:
# [1] = target: mouse CSL (RBPJ), core domain 53-474 53-474 (UniProt P31266); experiment: isothermal titration calorimetry; conditions: reference: nonphosphorylated N3RAM peptide; sites S1672
# [2] = target: mouse CSL (amino acid residues 53-474), conserved and structurally ordered core domain (mouse) (UniProt P31266); experiment: ITC; CSL in the cell at 10 μM, RAM peptides in the syringe at 100 μM; 20 °C; 50 mM sodium phosphate, 150 mM sodium chloride; triplicate, 20 injections of 14 μl
# Chain of mouse CSL (amino acid residues 53-474), conserved and structurally ordered core domain (mouse) (P31266 53-474): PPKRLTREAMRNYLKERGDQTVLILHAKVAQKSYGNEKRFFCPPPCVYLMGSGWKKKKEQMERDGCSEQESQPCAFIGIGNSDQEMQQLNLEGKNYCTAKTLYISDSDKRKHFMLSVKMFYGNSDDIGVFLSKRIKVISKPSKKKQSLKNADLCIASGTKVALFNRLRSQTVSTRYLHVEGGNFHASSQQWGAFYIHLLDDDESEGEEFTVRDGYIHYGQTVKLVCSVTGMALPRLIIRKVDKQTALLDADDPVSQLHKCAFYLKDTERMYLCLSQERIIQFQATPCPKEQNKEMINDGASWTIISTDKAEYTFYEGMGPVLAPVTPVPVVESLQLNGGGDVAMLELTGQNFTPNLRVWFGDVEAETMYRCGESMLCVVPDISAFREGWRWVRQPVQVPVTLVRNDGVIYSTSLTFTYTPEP
Substance,KD [1],Kd [2] [nM]
"human NOTCH3 (N3RAM peptide) RAM domain, 1665-1682 (from UniProt Q9UM47) N3RAMpS1672 peptide",lost; reference 0.187,–
"human NOTCH3 RAM peptide (residues 1665-1682), nonphosphorylated",–,187
